Legend:
[1] = biological target: T1, hFcεR1α.MMH (human); assay: SPR (Biacore 8k), antibody captured on anti-human Fc, hFcεR1α.MMH injected, 25°C
T1 construct: also called ectodomain of human FcεR1α with C-term myc-myc-6×His tag
T1 chain: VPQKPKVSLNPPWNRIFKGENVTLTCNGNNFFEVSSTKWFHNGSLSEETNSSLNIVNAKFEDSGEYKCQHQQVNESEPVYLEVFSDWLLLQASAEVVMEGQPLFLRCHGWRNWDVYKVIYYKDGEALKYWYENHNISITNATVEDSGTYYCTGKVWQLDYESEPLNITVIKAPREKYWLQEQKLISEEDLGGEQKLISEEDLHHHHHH
Protocol: (§1) Equilibrium dissociation constants (KD) for human or cynomolgus FcεR1α ectodomain binding to purified anti-FcεR1α monoclonal antibodies (mAbs) and CD3×FcεR1α bispecific antibodies (bsAbs) were determined using a real-time surface plasmon resonance biosensor (SPR-Biacore), Biacore 8k. All binding studies were performed in 10 mM HEPES, 150 mM NaCl, 3 mM EDTA, and 0.05% v/v surfactant Tween-20, pH 7.4 (HBS-ET) running buffer at 25° C. and 37° C.
(§2) The Biacore CM4 sensor surface was first derivatized by amine coupling with a monoclonal mouse anti-human Fc antibody to capture approximately 500-900 RUs anti-FcεR1α monoclonal antibodies or anti-CD3×FcεR1α bispecific monoclonal antibodies. 1 RU (response unit) represents 1 pg of protein per mm², as defined by the manufacturer. The ectodomain of human and cynomolgus FcεR1α reagents were expressed with a C-term myc-myc-6×His tag-hFcεR1α.MMH (SEQ ID NO: 57) and mfFcεR1α.MMH (SEQ ID NO: 58). Different concentrations of FcεR1α reagents were prepared in HBS-ET running buffer (600 nM-7.4 nM; serially diluted by 3-fold) and injected over anti-human Fc captured anti-FcεR1α monoclonal antibodies or anti-CD3×FcεR1α bispecific monoclonal antibodies surfaces for 1 minute at a flow rate of 30 μL/minute. The dissociation of bound FcεR1α reagents was monitored for 4 minutes in HBS-ET running buffer. Association (kₐ) and dissociation (kd) rate constants were determined by fitting the real-time binding sensorgrams to a 1:1 binding model with mass transport limitation using Biacore 8k evaluation software. Binding dissociation equilibrium constants (KD) and dissociative half-lives (t½) were calculated from the kinetic rate constants as: […]

[2] = biological target: T2, human FcεR1α expressed on cells (human, UniProt P12319 26-257); assay: flow cytometry, 70 nM antibody on HEK293/hFcεR1α/hFcεR1β/hFcεR1γ cells, No IgE
T2 construct: whole, on cells; Co-expressed with human FcεR1β (amino acids 1-244 of Uniprot Q01362-1) and FcεR1γ (amino acids 1-86 of Uniprot P30273-1); also called hFcεR1α; HEK293/hFcεR1α/hFcεR1β/hFcεR1γ cells
T2 sequence (looked up): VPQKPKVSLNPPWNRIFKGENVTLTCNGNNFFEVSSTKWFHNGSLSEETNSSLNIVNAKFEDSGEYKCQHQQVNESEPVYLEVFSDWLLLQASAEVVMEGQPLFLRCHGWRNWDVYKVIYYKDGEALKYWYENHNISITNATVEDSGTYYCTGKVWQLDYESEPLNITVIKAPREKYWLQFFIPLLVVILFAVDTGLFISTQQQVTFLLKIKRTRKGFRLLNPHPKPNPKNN
Protocol: (§3) For flow cytometry analysis, HEK293, HEK293/hFcεR1α/hFcεR1β/hFcεR1γ and HEK293/mf FcεR1α/hFcεR1β/hFcεR1γ cells were collected after dissociation using Enzyme Free Dissociation Buffer (Millipore Cat# S-004), and the cells were pre-incubated with or without 70 nM human IgE, for 30 minutes on ice in FACS buffer (PBS, without Ca⁺⁺ and Mg⁺⁺, (Irvine Scientific, Cat#9240) containing 2% FBS). Jurkat/NFAT-luc cells were also collected. The antibodies at the concentration of 70 nM were then added to 1×10⁶ cells/well of each cell type at 4° C. for 30 minutes. […] Cells were fixed using BD CytoFix™ (Becton Dickinson, Cat. #554655) and analyzed on Accuri™ C6 (BD) or CytoFLEX Flow cytometer (Beckman Coulter). Unstained and secondary antibody alone controls were also tested for all cell lines and a sample was evaluated for viability using the Far Red Fluo viability dye (Thermo Fisher, Cat#L10120) according to the manufacturer's protocol. The results were analyzed using FlowJo software (version 10.0.8, FlowJo) to determine the geometric means of fluorescence for viable cells and the binding ratio was calculated with the mean fluorescence intensity (MFI) of the experimental condition normalized by the MFI of the unstained respective cells.

[3] = biological target: T3, human CD3 expressed in Jurkat cells (human, UniProt P07766 23-207; P04234 22-171; P20963 22-164; P09693 23-182); assay: flow cytometry, 70 nM antibody on Jurkat/NFAT-luc cells, No IgE
T3 construct: Endogenous CD3 complex of Jurkat T cells; also called hCD3; Jurkat/NFAT-luc cells
Protocol: as §3

[4] = biological target: T4, monkey (cynomolgus) FcεR1α expressed on cells (cynomolgus); assay: flow cytometry, 70 nM antibody on HEK293/mfFcεR1α/hFcεR1β/hFcεR1γ cells, No IgE
T4 construct: range 4-260; On HEK293 cells, co-expressed with human FcεR1β and FcεR1γ; also called mfFcεR1α; HEK293/mfFcεR1α/hFcεR1β/hFcεR1γ cells
Protocol: as §3

[5] = biological target: T2, human FcεR1α expressed on cells; assay: cell-based or functional assay
[6] = biological target: T2, human FcεR1α expressed on cells; assay: flow cytometry, 70 nM antibody on HEK293/hFcεR1α/hFcεR1β/hFcεR1γ cells pre-incubated with 70 nM human IgE
Protocol: as §3

[7] = biological target: T1, hFcεR1α.MMH; assay: SPR (Biacore 8k), antibody captured on anti-human Fc, hFcεR1α.MMH injected, 37°C
Protocol: as §1, §2

[8] = biological target: T2, human FcεR1α expressed on cells; assay: cell-based or functional assay; remark: listed apart in the source
[9] = biological target: T5, mfFcεR1α.MMH (cynomolgus (Macaca fascicularis)); assay: SPR (Biacore 8k), antibody captured on anti-human Fc, mfFcεR1α.MMH injected, 37°C
T5 construct: also called mfFceR1a.MMH; ectodomain of cynomolgus FcεR1α with C-term myc-myc-6×His tag
T5 chain: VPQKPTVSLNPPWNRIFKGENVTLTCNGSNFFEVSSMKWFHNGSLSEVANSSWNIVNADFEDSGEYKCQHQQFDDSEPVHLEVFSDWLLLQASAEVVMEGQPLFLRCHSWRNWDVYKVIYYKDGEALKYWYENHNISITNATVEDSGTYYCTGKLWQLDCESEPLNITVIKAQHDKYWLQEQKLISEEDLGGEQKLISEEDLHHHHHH
Protocol: as §1, §2

[10] = biological target: T4, monkey (cynomolgus) FcεR1α expressed on …; assay: flow cytometry, 70 nM antibody on HEK293/mfFcεR1α/hFcεR1β/hFcεR1γ cells pre-incubated with 70 nM human IgE
Protocol: as §3

[11] = biological target: T5, mfFcεR1α.MMH; assay: SPR (Biacore 8k), antibody captured on anti-human Fc, mfFcεR1α.MMH injected, 25°C
Protocol: as §1, §2

[12] = biological target: T3, human CD3 expressed in Jurkat cells; assay: cell-based or functional assay

T3 sequence (P07766 23-207 limits assumed, chain 1 of 4): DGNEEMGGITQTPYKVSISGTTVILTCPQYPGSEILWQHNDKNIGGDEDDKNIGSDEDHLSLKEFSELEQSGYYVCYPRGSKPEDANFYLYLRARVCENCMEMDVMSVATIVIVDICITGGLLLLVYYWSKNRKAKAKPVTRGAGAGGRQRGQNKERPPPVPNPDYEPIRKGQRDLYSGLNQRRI
T3 sequence (P04234 22-171 limits assumed, chain 2 of 4): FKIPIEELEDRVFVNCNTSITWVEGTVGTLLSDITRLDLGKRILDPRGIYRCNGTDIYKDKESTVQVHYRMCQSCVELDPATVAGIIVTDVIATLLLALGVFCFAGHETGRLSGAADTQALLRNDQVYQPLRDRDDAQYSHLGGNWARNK
T3 sequence (P20963 22-164 limits assumed, chain 3 of 4): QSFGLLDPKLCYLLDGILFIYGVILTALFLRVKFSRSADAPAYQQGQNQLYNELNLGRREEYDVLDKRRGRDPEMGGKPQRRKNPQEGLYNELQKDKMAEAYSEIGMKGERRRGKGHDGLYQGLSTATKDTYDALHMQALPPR
T3 sequence (P09693 23-182 limits assumed, chain 4 of 4): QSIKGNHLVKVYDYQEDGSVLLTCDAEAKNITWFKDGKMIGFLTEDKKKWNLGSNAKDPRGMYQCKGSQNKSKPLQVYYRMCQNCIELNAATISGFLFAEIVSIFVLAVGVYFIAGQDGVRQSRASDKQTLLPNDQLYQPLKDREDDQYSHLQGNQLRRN

B1: bsAb24921D (bispecific antibody, human IgG4 S228P, kappa)
heavy 1: QVQVQESGPRLVKPSETLSLTCTVSGGSMSSYYWIWIRQPPGKELEWIGYIYYSGSTNYNPSLKSRATISVDTSKNQFSLNLNSVTAADTAVYYCARRNNWNYVRAFDIWGQGTMVTVSSASTKGPSVFPLAPCSRSTSESTAALGCLVKDYFPEPVTVSWNSGALTSGVHTFPAVLQSSGLYSLSSVVTVPSSSLGTKTYTCNVDHKPSNTKVDKRVESKYGPPCPPCPAPPVAGPSVFLFPPKPKDTLMISRTPEVTCVVVDVSQEDPEVQFNWYVDGVEVHNAKTKPREEQFNSTYRVVSVLTVLHQDWLNGKEYKCKVSNKGLPSSIEKTISKAKGQPREPQVYTLPPSQEEMTKNQVSLTCLVKGFYPSDIAVEWESNGQPENNYKTTPPVLDSDGSFFLYSRLTVDKSRWQEGNVFSCSVMHEALHNHYTQKSLSLSLGK
heavy 2: EVQLVESGGGLVQPGRSLRLSCAASGFTFDDYSMHWVRQAPGKGLEWVSGISWNSGSIGYADSVKGRFTISRDNAKNSLYLQMNSLRAEDTALYYCAKYGSGYGKFYYYGMDVWGQGTTVTVSSASTKGPSVFPLAPCSRSTSESTAALGCLVKDYFPEPVTVSWNSGALTSGVHTFPAVLQSSGLYSLSSVVTVPSSSLGTKTYTCNVDHKPSNTKVDKRVESKYGPPCPPCPAPPVAGPSVFLFPPKPKDTLMISRTPEVTCVVVDVSQEDPEVQFNWYVDGVEVHNAKTKPREEQFNSTYRVVSVLTVLHQDWLNGKEYKCKVSNKGLPSSIEKTISKAKGQPREPQVYTLPPSQEEMTKNQVSLTCLVKGFYPSDIAVEWESNGQPENNYKTTPPVLDSDGSFFLYSRLTVDKSRWQEGNVFSCSVMHEALHNRFTQKSLSLSPGK
light: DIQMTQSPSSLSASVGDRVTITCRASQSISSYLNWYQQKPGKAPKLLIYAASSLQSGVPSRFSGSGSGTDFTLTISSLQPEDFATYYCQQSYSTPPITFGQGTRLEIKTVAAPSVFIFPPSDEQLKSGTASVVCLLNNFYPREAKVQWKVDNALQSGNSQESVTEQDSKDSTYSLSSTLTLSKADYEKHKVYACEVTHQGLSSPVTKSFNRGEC
notes: IgG4 Fc domain; two distinct heavy chains with a common light chain; also called anti-FcεR1α×CD3 bispecific antibody; FcεR1α × hCD3
[1]
  600 nM hFcεR1α.MMH Bound (RU): 69 RU
  Kd: 274 nM
  koff: 0.0212 s⁻¹
  kon: 77400 M⁻¹ s⁻¹
  t½: 32.4 s
[2]
  Binding Ratio (MFI of Treated/MFI of Unstained): 253
[3]
  Binding Ratio (MFI of Treated/MFI of Unstained): 94
[4]
  Binding Ratio (MFI of Treated/MFI of Unstained): 169
[5]
  EC50, decrease of primary human basophils within PBMC with activated CD8+ T cells: 4 nM
  Maximum percent basophil decrease, PBMC with activated CD8+ T cells: 90.9%
[6]
  Binding Ratio (MFI of Treated/MFI of Unstained): 295
[7]
  600 nM hFcεR1α.MMH Bound (RU): 40 RU
  Kd: 977 nM
  koff: 0.0934 s⁻¹
  kon: 95600 M⁻¹ s⁻¹
  t½: 7.2 s
[8]
  EC80, cleaved caspase 3+ cleaved PARP+ HEK293/hFcεR1α/hFcεR1β/hFcεR1γ target cells with activated CD8+ T cells: 0.0613 nM
  Maximum percent apoptotic cells, HEK293/hFcεR1α/hFcεR1β/hFcεR1γ target cells with activated CD8+ T cells: 55.8%
[9]
  600 nM mfFceR1a.MMH Bound (RU): 37 RU
  Kd: 520 nM
  koff: 0.0445 s⁻¹
  kon: 85600 M⁻¹ s⁻¹
  t½: 15.6 s
[10]
  Binding Ratio (MFI of Treated/MFI of Unstained): 284
[11]
  600 nM mfFceR1a.MMH Bound (RU): 60 RU
  Kd: 256 nM
  koff: 0.0161 s⁻¹
  kon: 62900 M⁻¹ s⁻¹
  t½: 42 s
[12]
  EC50 [M], NFAT-luciferase in Jurkat/NFAT-luc with HEK293/hFcεR1α/hFcεR1β/hFcεR1γ cells, 10 nM IgE: 1.1e-09 M
  EC50 [M], NFAT-luciferase in Jurkat/NFAT-luc with HEK293/hFcεR1α/hFcεR1β/hFcεR1γ cells, No IgE: 2.3e-10 M
  Fold Activation, Jurkat/NFAT-luc with HEK293/hFcεR1α/hFcεR1β/hFcεR1γ cells, 10 nM IgE: 27 fold
  Fold Activation, Jurkat/NFAT-luc with HEK293/hFcεR1α/hFcεR1β/hFcεR1γ cells, No IgE: 24 fold

From US20200062844A1 (Regeneron, published 2020)
